According to the RNAGym collection of RNA variant scans (doi:10.1073/pnas.2313332121):

B1: TPR t1 (parent)
chain: GACCAAUCUGCCCUCAGAGCUCGAGAACAUCUUCGGAUGCAGAGGAGGCAGGCUUCGGUGGCGCGAUAGCGCCAACGUCCUCAACCUCCAAUGCAUCCCACCACAUGAUGAUGCCUGAAGAGCCUUGGUUUUUUG

Variants of: B1
Test: polymerase ribozyme fitness, log enrichment relative to wild type (log ratio); higher = more active; in vitro selection for triplet polymerase activity
How it was run: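 Mutant libraries of both subunits of a heterodimeric triplet polymerase ribozyme were PCR-built, transcribed, and selected once in triplicate, with frozen incubation at −7 °C and capture of gel-excised extended constructs on streptavidin beads before RT-PCR. Illumina sequencing of input and output libraries was filtered to genotypes with ≥10 input reads and ≥1 read per output. Fitness is the logarithm of genotype enrichment over wild-type enrichment, using inverse-variance-weighted replicate averages. The logarithm is base 2.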

Variant | polymerase ribozyme fitness (log ratio)
GACCAAUCUACCCUCAGAGCUCGAGAACAUCUUCGGAUGAAGAGGAGGCAGGCUUAGGUGGCGCGAUAGCGCCAACGUCCUCACACUCCAAUGCAUCCAACCACAUGAUGAUGCUUGAAGAGCCUUGGUUUUUUG | -7.46
GACCAAUCUACCCUCAGAGCUCGAGAACAUCUUCGGAUGCAGAGGAGGCAGGCUUCGGUGGCGCGAUAGCGCCAACGUCCUCCACCUCCAAUGCAUCCCACCACAUGAUCAUGCCUGAAGAGCCUUGGUUUUAUG | -3.93
GACCAAUCUACCUUCAGAGCUCGAGAACAUCUUCGGAGGCAGAGGAGGCAGGCUUUGGUGGCGCGAUAGCGCCAACGUCCUGAACCUCCAAUGCAUCCCACCACAUGAUGAUGCCUGAAGAGCCUUGGUUUUUUG | -1.27
GACCAAUCUAUCCUCAGAGCUCGAGAAAAUCUUCGGAUGCAGAGGAGGCAGGCUUCGGUGGCGCGAUAGCGCCAACGUCCUCAACCUCCAAUGCAUCCCACCACAUGAUGAUGCCUGAAGAGCCUUGGUUUUUUG | -4.2
GACCAAUCGGCCCUCAGAGCUCGAGAACAUCUUCGGAUGCAGAGGAGGCAGGCAUCGGUGGCGCGAUAGCGCCAACGUCCUCAACCUCCAAUGCAUGCCACCACAUGAUGAUGCCUGAAGAGCCUUGGUUCUUUG | -4.7
GACCAAUCGGCCCUCAGAGCUCGAGAACAUCUUCGGAUGCAGAGGAGGCAGGCUUCGGUGGCGCGAUAGCGCCAACGUCCUCAACCUCCAAUGCAUCCCACCACAUGAUGAUACCUGAAGAGCCUUGGUUUUUUG | -0.0202
GACCAAUCUACCCUCAGAGUUCGAGACCAUCUUCGGAUGCAGAGGAGGCAGGCUUCGGUGUCGCGAUAGCGCCAACGUCCUCAACCUCCAAUGCAUCCCACUACAUGAUGAUGCCUGAAGAGCCUUGGUUUUUUG | -6.05
GACCAAUCUACUCUCAGAGCUCGAGAACAUCUUCGGAUGCAGAGGAGGCAGGCUUCGGUGGCGCGAUAGCGCCAACGUCCUCAACCUCCAAUGCAUCCCACCACAUGAUGAAGCCUGAAGAGCCUUGGUUUUUUG | 1.73
GACCAAUCUACCGUCAGAGCUGGAGAACAUCUUCGGCUGCAGAGGAGGCAGGCUUCGGUGGCGCGAUAGCGACAACGUCCUCAACCUCCAAUGCUUCCCACCACAUGAUGAUGCCUGAAGAGCCUUGGUUUUUUG | -4.63
GACCAAUCUACCCUCAGAGCUCGAGAACAUCUUCGGAUGCAGAGGAGGCAGGCUUCGGUGGCGCGAUAGCGCCAACGUCCUCAACCUCCCAUCCAUCCCACCACAUGAUGUUGCCUGAAGAGCCUUGGUUUUUUG | -5.12
GACCAAUCUAACCUAAGAGCUCGAGAACAUCUUCGGAUGCAGAGGAGGCAGGCUUCGGUGGCGCGAUAGCGCCAACGUCCUCAACCUCCAAUGCAUCCCACCACAUGAUGAUGCCUGAAGAGCCUUGGUUUUUUG | -4.29
GACCAAUCUACCCUCAGAGCUCGAGAACAUCUUCGGAUGCAGAGGAGGCAGGAUUCGGUGGCGCGAUAGCCCCAACGUCCUCAACCUCCAAUGCAUCCCACCAUAUGAUAAUGGCUGAAGAGCCUUGGUUUUUUG | -6.44
GACCAAUCGGCCCGCAGAGCUCGAGAACAUCUUCGGAUGCAGAGGAGGCAGGCUUCGGUGGCGCGAUAGCGCCAACGUCCUCAACCUCCAAUACAUCCCACCACAUGAUGAUGCCUGAAGAGCCUUGGUUUUUUG | -0.26
GACCAAUCGGCCCUCAGAGCUCGAGAACAUCUUCGGAUGCAGAGGAGGCAGGCUCCGGUGGCGCGAUAGCGCCAACGUCCUCAACCUCUAAUGAAUCCCACCACAUGAUGAUGCCUGAAGAGCCUAGGUUUUUUG | -1.95
GACCAAUCUACCCUCAGAGCUCGAGAACAUCUUCGGUUGCAGAGGAGGCAGGAUUGGGUGGCGCGAUAACGCCAACGUCCUCAACCUUCAAUGCAUCCCACCACAUGAUGAUGCCUGAACAUCCUUGGUUUUUUG | -1.99
GACCAAUCUAGCCUCAGAGCUCGAGAACAUCUUCGGAUGCAGAGGAGGCAGGCUUCGGUGGCGCGAUAGGGCCAACGUCCUCAACCUCCAAUGCAUCCCACCACAUGAUGAUGCCUGAAGAGCCUUGGUUUUUUG | -2.13
GACCAAUCGGCCCUCAGAGCUCGAGAACAUCUUCGGAUGCAGAGGAGGCAGGCUUCGGUGGCGCGAUAGCGCCAACGUCCUCAACCUCCAAUGCAUCCCACCACAUGAUGAUGCCUGAAAAGCCUUGGUAUUUUG | 1.11
GACCAAUCUACCCUCAGAGCUCGAGAACAUCUUCGGAUGUAGAGGAGGCAGGCUUCGGUGGCGCGAUACCGCCAACGUCCUCAACCUCCAAUGCAUCCCACCACAUGAUGAUGCCUGAAGAGGCUUGGUUUUUUG | -0.405
GACCAAUCUACCUUCAGAGCUCGAGAACACAUUCGGAUGCAUAGGAGGCAGGCUUCGGUGGCGCGAUAGCGCCAACGUCCUCAACCUCCAAUGCAUCCCACCACAUGAUGAUGCCUGAAGAGACUGGGUUUUUUG | -5.09
GACCAAUCUACCCUCAGUGCUCGAGAACAUCUUCGGAUGCAGAGGAGGCAGGCUUCGGUGGCGCGAUAGCGCCAACAUCCUCAACCACCAAUGCAUCCCACCACAUGAUGAUGCAUGAAGAGCCUUGGUUUUUUG | -1.44
GACCAAUCUACCCUCAGAGCUCGAGAACUUCUUCGGAUGCAGAGGAGGCAGGCUUCGGUGGCGCGAUAGCGACAACGUCCUCAACCUGCAAUGCAUCCCACCACAUGAUGAUGCCGGAAGAGCCUUGGUUUUUUG | -3.97
